Laboratory results reported in patent US7611721B1, “Adjuvant combination formulations” (priority 2000, dated 2009).
Read-outs that look alike come from different tables or passages of the source.

Columns and labels:
T1SP10MN(A) (−Cys) [1] = system: T1SP10MN(A) (−Cys)
Description: Animals were bled prior to initial immunization, and at indicated time points. Serum was analyzed from individual mice, or as pools from mice within groups. Vaginal lavage was performed on euthanized mice to assess antibody levels. This was accomplished by instillation of 75:1 RPMI-10 into the vaginal vault of female mice using a 200:1 pipette. The vault was washed by repeated delivery and removal of fluid, which was then added to 10:1 of FBS. Vaginal lavage were analyzed as pools.
For analysis of HIV peptide-specific antibody and subclass distribution, peptide was suspended in either carbonate buffer (15 mM Na2CO3, 35 mM NaHCO3, pH 9.6), or PBS, at a concentration of 1 μg/ml and plated to 96 well microtiter plates (Nunc) in a volume of 100:1. After overnight incubation at 37° C., plates were washed, and blocked (0.1% gelatin/PBS) at room temperature for 2-4 hours. ELISA plates were washed with wash buffer (PBS, 0.1% Tween™20) before addition of serially diluted serum (PBS, 0.1% gelatin, 0.05% Tween™20, 0.02% sodium azide). After a four hour incubation, wells were washed and appropriate dilutions of biotinylated anti-isotype/subclass antibodies were added for incubation at 4° C. overnight. Wells were washed and incubated with strepavidin-conjugated horseradish peroxidase. After incubation, wells were washed, and developed with ABTS. Wells were read at 405 nm. Titers were standardized using control sera.
Vaginal IgG and IgA anti-peptide antibody titers were measured from lavage obtained 2 weeks after final immunization. Groups of 5 Balb/c female mice were immunized with 25 μg T1SP10MN(A) (−Cys) and the indicated adjuvant formulations on days 0, 28, and 42. Vaginal antibody titers were determined from pool d lavage fluid.
HIV peptide-specific vaginal lavage endpoint reciprocal endpoint IgG and IgA antibody titers were measured from pooled serum (n=5 Balb/c) 15 days after secondary immunization. […] Aqueous MPL™ was delivered at 50 μg per dose. Recombinant murine IL-12 was delivered at 40 ng/mouse. Recombinant murine GM-CSF was delivered at 10 μg/mouse.
Vaginal IgG and IgA anti-peptide antibody titers were measured from lavage 41 days after initial immunization, 13 days after secondary immunization.

T1SP10MN(A) (−Cys) [2] = conditions: Experiment 3, 14 days after second immunization
Description: (§1) The protocols of Experiment 2 were followed, with Swiss-Webster mice used instead of Balb/c mice. Only reciprocal anti-peptide IgG endpoint titers and vaginal lavage endpoint reciprocal endpoint IgG and IgA antibody titers were measured in this experiment.
Reciprocal anti-T1SP10MN(A) (−Cys) IgG endpoint titers were measured from geometric means from individual Swiss-Webster mice (GMT), obtained 14 days after the second immunization. IgG1 and IgG2a subclass endpoint titers were also measured from pooled serum. For recipients of Freund's adjuvants, mice were primed with peptide emulsified in CFA, and boosted with IFA. […] Aqueous MPL™ was delivered at 50 μg per dose. Recombinant murine IL-12 was delivered at 40 ng/mouse. Recombinant murine GM-CSF was delivered at 10 μg/mouse.

T1SP10MN(A) (−Cys) [3] = conditions: Experiment 3; pooled, n=5 Swiss-Webster; 15 days after secondary immunization
Description: as §1
Aqueous MPL™ was delivered at 50 μg per dose. Recombinant murine IL-12 was delivered at 40 ng/mouse. Recombinant murine GM-CSF was delivered at 10 μg/mouse.

spleen cells = assay: Secretion of IL-4 by spleen cells (ELISA); type: cell-based, Balb/c mice
Description: For proliferation assays and in vitro cytokine analysis, spleen cells were obtained from mice at the indicated time points. Single cell suspensions were prepared from pools of 3-5 mice as indicated in Results. For proliferation and cytokine analysis, cells were suspended in round bottom 96 well culture plates precoated overnight with HIV peptide antigens, control proteins, or RPMI-10 only. Spleen cells were added at 5×10^5 cells/well using culture medium having 2× supplements. Cell culture supernatants were harvested from triplicate wells for cytokine analysis three or six days after culture initiation. Immediately after supernatant harvest, cultures were pulsed with ^3H-thymidine for 18-24 hours, and harvested to quantify cell proliferation.
For cytokine analysis, cell culture supernatants were added to wells coated with BVD6-11B11 (for anti-IL4), or R4-6A2 (for interferon-gamma). After incubation and washing, wells were developed using biotin-labeled BVD6-24G2 (for IL4) or XMG 1.2 (for interferon-gamma). The concentration of cytokines was determined using a standard curve prepared from recombinant murine interferon-gamma or interleukin-4. All cytokine reagents were purchased from Pharmingen (San Diego, Calif.).
Interleukin-4 secreted into culture by spleen cells stimulated with 25 μg T1SP10MN(A) (−Cys) was measured. Spleen cells were harvested from pools of five Balb/c female mice and cultured with the indicated antigenic stimuli (50 ng IL-12, 10 μg GM-CSF, 50 μg MPL™ as indicated) for either three or six days. Interleukin-4 levels were determined by ELISA, and compared to a standard having a known concentration. Blank wells indicate that the assay could not detect Interleukin-4 from those culture conditions. The lower limit of detection sensitivity was 22 Units/ml.
Cells were cultured for a total of 96 hours. Cell culture supernatants were analyzed for IL-4 by ELISA. All values were after subtraction from those determined from supernatants of cells stimulated with 10 μg of an irrelevant protein (lysozyme). Results which were below the limit of detection, after subtraction from stimulation induced with lysozyme are indicated as “bd”. The adjuvants were 40 ng IL-12, 10 μg GM-CSF and 50 μg MPL™.

T1SP10MN(A) (−Cys) [4] = system: T1SP10MN(A) (−Cys); remark: listed apart in the source
Description: Mice were immunized subcutaneously in the rump, in a total volume of 0.2 ml equally divided on each side of the tail. Immunizations were administered at varying time intervals, as indicated below. Antigen and cytokines were diluted in phosphate buffered saline to the appropriate concentrations and formulated with adjuvants less than 16 hours prior to immunization, under sterile conditions. Vaccines were mixed by gentle agitation, and stored at 4° C. Formulations were mixed by vortex immediately prior to immunization.
Reciprocal anti-HIV peptide-specific IgG endpoint titers were measured from pooled serum (n=5 Balb/c) at the indicated time points after initial immunization. Mice were immunized subcutaneously in the rump with 25 μg of T1SP10MN(A) (−Cys), unless otherwise indicated, on day 0, and on day 27. For recipients of Freund's adjuvants, mice were primed with peptide emulsified in CFA, and boosted with IFA. MPL™ SE was provided as an emulsion containing 2% squalene oil and 50 μg MPL™ per dose. SE is an oil-in-water emulsion vehicle consisting of squalene, glycerol, and an emulsifying agent. Recombinant murine IL-12 was delivered at 50 ng/mouse. Recombinant murine GM-CSF was delivered at 10 μg/mouse.
Reciprocal endpoint IgG subclass titers were measured from pooled serum (n=5 Balb/c) six weeks after initial immunization, two weeks after secondary immunization. Mice were immunized subcutaneously in the rump with 25 μg of peptide, unless otherwise indicated. For recipients of Freund's adjuvants, mice were primed with peptide emulsified in complete Freund's adjuvant, and boosted with incomplete Freund's adjuvant on weeks four and six. MPL™ SE was provided as an emulsion containing 2% squalene oil and 50 μg MPL™ per dose. SE is an oil-in-water emulsion vehicle consisting of squalene, glycerol, and an emulsifying agent. Recombinant murine IL-12 was delivered at 50 ng/mouse. Recombinant murine GM-CSF was delivered at 10 μg/mouse.
Mice were immunized subcutaneously in the rump, in a total volume of 0.2 ml equally divided on each side of the tail. Immunizations were administered on days 0 and 21 with 25 μg of the HIV peptide, together with the indicated amount of adjuvant(s).
Reciprocal anti-peptide IgG endpoint titers were measured from either geometric means from individual mice (GMT) or from pooled serum (n=5 Balb/c), obtained 14 days after the second immunization. IgG1 and IgG2a subclass endpoint titers were also measured from pooled serum.

[5] = Experiment 1, pooled lavage, 5 Balb/c, immunized days 0, 28, 42, 2 weeks after final immunization
[6] = Experiment 2, pooled, n=5 Balb/c, 15 days after secondary immunization
[7] = Experiment 4, Balb/c, day 41, 13 days after secondary immunization
[8] = Experiment 2, 96 hours culture, after subtraction of lysozyme value, bd = below limit of detection
[9] = Experiment 1, pooled serum n=5 Balb/c, 25 μg peptide s.c. day 0 and 27
[10] = Experiment 1, pooled serum n=5 Balb/c, six weeks after initial, two weeks after secondary immunization, 25 μg peptide
[11] = Experiment 2, pooled serum n=5 Balb/c, 14 days after second immunization
[12] = Experiment 4, individual Balb/c mouse, day 41, 13 days after secondary immunization (days 0 and 28)
[13] = Experiment 4, pooled serum n=5 Balb/c, day 41, 13 days after secondary immunization

B1: rIL-12: Recombinantly expressed murine IL-12 (Genetics Institute) (protein, UniProt P43431 23-215; P43432 23-335, looked up)
Interleukin-12 subunit alpha: RVIPVSGPARCLSQSRNLLKTTDDMVKTAREKLKHYSCTAEDIDHEDITRDQTSTLKTCLPLELHKNESCLATRETSSTTRGSCLPPQKTSLMMTLCLGSIYEDLKMYQTEFQAINAALQNHNHQQIILDKGMLVAIDELMQSLNHNGETLRQKPPVGEADPYRVKMKLCILLHAFSTRVVTINRVMGYLSSA
Interleukin-12 subunit beta: MWELEKDVYVVEVDWTPDAPGETVNLTCDTPEEDDITWTSDQRHGVIGSGKTLTITVKEFLDAGQYTCHKGGETLSHSHLLLHKKENGIWSTEILKNFKNKTFLKCEAPNYSGRFTCSWLVQRNMDLKFNIKSSSSSPDSRAVTCGMASLSAEKVTLDQRDYEKYSVSCQEDVTCPTAEETLPIELALEARQQNKYENYSTSFFIRDIIKPDPPKNLQMKPLKNSQVEVSWEYPDSWSTPHSYFSLKFFVRIQRKKEKMKETEEGCNQKGAFLVEKTSTEVQCKGGNVCVQAQDRYYNSSCSKWACVPCRVRS
Vaginal lavage IgA anti-T1SP10MN(A) (−Cys) antibody titer (T1SP10MN(A) (−Cys) [1]; [5]): <20 | Vaginal lavage IgG anti-T1SP10MN(A) (−Cys) antibody titer (T1SP10MN(A) (−Cys) [1]; [5]): <20 | Vaginal lavage reciprocal anti-T1SP10MN(A) (−Cys) IgA endpoint titer (T1SP10MN(A) (−Cys) [1]; [6]): <10 | Vaginal lavage reciprocal anti-T1SP10MN(A) (−Cys) IgG endpoint titer (T1SP10MN(A) (−Cys) [1]; [6]): <10 | Vaginal lavage IgA anti-T1SP10MN(A) (−Cys) antibody titer (T1SP10MN(A) (−Cys) [1]; [7]): <10 | Vaginal lavage IgG anti-T1SP10MN(A) (−Cys) antibody titer (T1SP10MN(A) (−Cys) [1]; [7]): <10 | Reciprocal anti-HIV peptide IgG (GMT) endpoint titer (T1SP10MN(A) (−Cys) [2]; individual Swiss-Webster mice): 500 | Reciprocal anti-HIV peptide IgG1 (pool) endpoint titer (T1SP10MN(A) (−Cys) [2]; pooled serum Swiss-Webster): <1000 | Reciprocal anti-HIV peptide IgG2a (pool) endpoint titer (T1SP10MN(A) (−Cys) [2]; pooled serum Swiss-Webster): <1000 | Vaginal lavage reciprocal anti-HIV peptide IgA endpoint titer (T1SP10MN(A) (−Cys) [3]): <10 | Vaginal lavage reciprocal anti-HIV peptide IgG endpoint titer (T1SP10MN(A) (−Cys) [3]): <10 | Secretion of IL-4, Con A 1 μg/ml (spleen cells; Experiment 1, Three Day Cultures, detection limit 22 Units/ml): 156 Units/ml | Secretion of IL-4, Con A 5 μg/ml (spleen cells; Experiment 2, 96 hours culture, after subtraction of lysozyme value): 411 pg/mL | Secretion of IL-4, HIV Peptide 1.1 μg/ml (spleen cells; [8]): 15 pg/mL | Secretion of IL-4, HIV Peptide 3.3 μg/ml (spleen cells; [8]): bd | Secretion of IL-4, HIV Peptide 10 μg/ml (spleen cells; [8]): bd | Reciprocal anti-T1SP10MN(A) (-Cys) IgG endpoint titer, WEEK 4 (T1SP10MN(A) (−Cys) [4]; [9]): <100 | Reciprocal anti-T1SP10MN(A) (-Cys) IgG endpoint titer, WEEK 6 (T1SP10MN(A) (−Cys) [4]; [9]): <100 | Reciprocal anti-T1SP10MN(A) (-Cys) IgG endpoint titer, WEEK 8 (T1SP10MN(A) (−Cys) [4]; [9]): <100 | Reciprocal anti-T1SP10MN(A) (-Cys) IgG1 endpoint titer (T1SP10MN(A) (−Cys) [4]; [10]): <100 | Reciprocal anti-T1SP10MN(A) (-Cys) IgG2a endpoint titer (T1SP10MN(A) (−Cys) [4]; [10]): <100 | Reciprocal anti-T1SP10MN(A) (-Cys) IgG2b endpoint titer (T1SP10MN(A) (−Cys) [4]; [10]): <100 | Reciprocal anti-T1SP10MN(A) (−Cys) IgG (GMT) endpoint titer (T1SP10MN(A) (−Cys) [4]; Experiment 2, geometric mean of individual Balb/c mice, 14 days after second immunization): 500 | Reciprocal anti-T1SP10MN(A) (−Cys) IgG1 (pool) endpoint titer (T1SP10MN(A) (−Cys) [4]; [11]): <1000 | Reciprocal anti-T1SP10MN(A) (−Cys) IgG2a (pool) endpoint titer (T1SP10MN(A) (−Cys) [4]; [11]): <1000 | Reciprocal anti-T1SP10MN(A) (−Cys) IgG (pool) endpoint titer (T1SP10MN(A) (−Cys) [4]; Experiment 2, pooled serum n=5 Balb/c, immunized days 0 and 21, 14 days after second immunization): <1000 | IgG serum titer specific for T1SP10MN(A) (−Cys), Mouse #1 (T1SP10MN(A) (−Cys) [4]; [12]): 594 | IgG serum titer specific for T1SP10MN(A) (−Cys), Mouse #2 (T1SP10MN(A) (−Cys) [4]; [12]): 50 | IgG serum titer specific for T1SP10MN(A) (−Cys), Mouse #3 (T1SP10MN(A) (−Cys) [4]; [12]): 50 | IgG serum titer specific for T1SP10MN(A) (−Cys), Mouse #4 (T1SP10MN(A) (−Cys) [4]; [12]): 50 | IgG serum titer specific for T1SP10MN(A) (−Cys), Mouse #5 (T1SP10MN(A) (−Cys) [4]; [12]): 50 | Geometric Mean IgG serum titer specific for T1SP10MN(A) (−Cys), GMT (T1SP10MN(A) (−Cys) [4]; Experiment 4, n=5 Balb/c, day 41, 13 days after secondary immunization): 82 | Reciprocal anti-T1SP10MN(A) (−Cys) IgG1 endpoint titer (T1SP10MN(A) (−Cys) [4]; [13]): <100 | Reciprocal anti-T1SP10MN(A) (−Cys) IgG2a endpoint titer (T1SP10MN(A) (−Cys) [4]; [13]): <100 | Reciprocal anti-T1SP10MN(A) (−Cys) IgG2b endpoint titer (T1SP10MN(A) (−Cys) [4]; [13]): <100
